Experimental data reported in publication doi:10.1101/2020.09.16.300517.
pKd: −log10 of the molar value. “And” between values parts separate entries of the source, which are not always exact repeats. Identical values can stand only once.

Tests used:
[1] = molecular target: phalloidin-stabilized pyrene-labeled F-actin (rabbit) (UniProt P68135); test: other fluorescence titration
[2] = molecular target: bovine cardiac ventricular β-myosin subfragment 1 (α-chymotryptic S1) (bovine); test: stopped-flow fluorescence kinetics

Substance | PFA fluorescence restored by MgATP, with Mava [1] | PFA fluorescence restored by MgATP, with OM [1] | decrease in pyrene fluorescence intensity at S1:actin 0.7:1 [1] | stoichiometry N [1] | pKd [2]
bovine cardiac ventricular β-myosin subfragment 1 (α-chymotryptic S1) (domain or fragment) | 84% | 65% | 46% | 1 S1 per actin | 
phalloidin-stabilized pyrene-labeled F-actin (from UniProt P68135 1-377) (natural protein) |  |  |  |  | 7.32 and 7.24
